Experimental data taken from patent US20260116984A1 (ENTHERA S R L, published 2026).

B1: TM1 (antibody, V domains shown)
VH: QVQLVESGGGVVQPGRSLRLSCAASGFTFSTYGIHWVRQAPGKGLEWVAVIWYDGYNKYYVDSVKGRFTISRDNSENTVYLQMNSLRTEDTAVYYCAREGWFGKLLSALDIWGQGTMVTVSS
VL: VIQMTQSPSSLSASVGDRVTITCRASQGIRNDLGWYLQKPGKAPELLIYPASSLQSGVPSRFSGSGSGTDFTLTISSLQPEDFATYYCLQDYNYPFTFGQGTKLEIK
notes: constant regions are not tied to it; also called anti-TMEM219 TM1
B2: TC05 (antibody, human IgG4, V domains shown)
VH: QIQLVQSGAEVKQPGASVSVSCAASGYTFTSYGISWVRQAPGQGLEWMGWISAYNGNTNYAQKLQGRVTMTTDTSTSTAYMELSSLRSDDTAVYYCARWGRWLAHDYWGQGTLVTVSS
VL: QAVLTQPPSVSVSPGQTASITCSGDKLGNKNAYWYQQKPGQSPVLVMYQSTRRPSGIPERFSASNSGNTATLTISGTQAMDEADYYCQAWDSSSGWEVFGGGTKLTVL
B3: TC04 (antibody, human IgG4, V domains shown)
VH: QIQLVQSGAEVKQPGASVSVSCAASGYTFTSYGISWVRQAPGQGLEWMGWISAYNGNTNYAQKLQGRVTMTTDTSTSTAYMELSSLRSDDTAVYYCARWGRWLAHDYWGQGTLVTVSS
VL: QAVLTQPPSVSVSPGQTASITCSGDKLGNKNAYWYQQKPGQSPVLVMYQSTRRPSGIPERFSASNSGNTATLTISGTQAEDEADYYCQAWDSSSGWEVFGGGTKLTVL
B4: TC03 (antibody, human IgG4, V domains shown)
VH: QIQLVQSGAEVKQPGASVSVSCAASGYTFTSYGISWVRQAPGQGLEWMGWISAYNGNTNYAQKLQGRVTMTTDTSTSTAYMELSSLRSDDTAVYYCARWGRWLAHDYWGQGTLVTVSS
VL: QAVLTQPPSVSVSPGQTASITCSGDKLGNKNAYWYQQKPGQSPVLVMYQSTRRPSGIPERFSASNSGNTATLTISGTQAMDEADYYCQAWLSSSGWEVFGGGTKLTVL
B5: TC01 (antibody, V domains shown)
VH: QIQLVQSGAEVKKPGASVKVSCKASGYTFTSYGISWVRQAPGQGLEWMGWISAYNGNTNYAQKLQGRVTMTTDTSTSTAYMELRSLRSDDTAVYYCARWGRWLAHDYWGQGTLVTVSS
VL: QAVLTQPPSVSVSPGQTASITCSGDKLGNKNAYWYQQKPGQSPVLVMYQSTRRPSGIPERFSASNSGNTATLTISGTQAMDEADYYCQAWDSSSGWEVFGGGTKLTVL
notes: also called anti-TMEM219 TC01; TCO1
B6: TE10 (antibody, V domains shown)
VH: QVQLVESGGGVVQPGRSLRLSCAASGFTFSSYGMHWVRQAPGKGLEWVAVIWYDGSNKYYADSVKGRFTISRDNSKNTLYLQMNSLRAEDTAVYYCAREGRGMDVWGQGTTVTVSS
VL: QPVLTQSSSASASLGSSVKLTCTLSSGHSSYIIAWHQQQPGKAPRYLMKLEGSGSYNKGSGVPDRFSGSSSGADRYLTISNLQFEDEADYYCETWDSNTPHAVFGGGTQLTAL

Key:
[1] = molecular target: TMEM219 on human beta cells (Betalox-5) and human islets (human) (UniProt Q86XT9); assay: cell-based or functional assay
Murine Ecto-TMEM219 = molecular target: T1, Murine Ecto-TMEM219 (murine, UniProt Q9D123 43-203); assay: Octet BLI, antibody captured via Fc on biosensor, antigen at 150 nM
T1 construct: also called mEcto-TMEM
T1 sequence: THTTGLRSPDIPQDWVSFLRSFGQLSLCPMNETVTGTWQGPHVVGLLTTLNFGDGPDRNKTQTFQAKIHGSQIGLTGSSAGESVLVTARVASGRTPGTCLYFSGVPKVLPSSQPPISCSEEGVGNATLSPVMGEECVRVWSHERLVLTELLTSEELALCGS
Method: (§1) The binding affinity measurements were performed using an Octet instrument (Octet BMIA), which is a Biolayer Interferometry (BLI) platform based on Biomolecular Interaction Analysis. To establish the assay, the target monoclonal antibody (30 μg/ml in PBS) was immobilized via Fc on the Anti-Mouse IgG Fc Capture (AMC) or Anti-Human IgG Fc Capture (AMC) biosensors and the interaction with the antigen, human and murine Ecto-TMEM219 (Genescript's customized protein service) at 150 nM was measured.

Human Ecto-TMEM219 [2] = molecular target: T2, Human Ecto-TMEM219 (human, UniProt Q86XT9 43-204); assay: as above
T2 construct: also called hEcto-TMEM
T2 sequence: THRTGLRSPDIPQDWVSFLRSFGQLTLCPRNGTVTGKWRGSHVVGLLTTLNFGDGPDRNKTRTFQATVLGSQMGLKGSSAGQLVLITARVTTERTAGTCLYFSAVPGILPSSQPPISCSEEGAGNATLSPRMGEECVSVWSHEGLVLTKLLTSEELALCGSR
Method: as §1

Human Ecto-TMEM219 [3] = molecular target: T2, Human Ecto-TMEM219; assay: ELISA, ectoTMEM coated at 5 µg/ml, antibody dilution series, anti-human-Fc HRP detection
Method: The binding activity of the purified IgG4 (TC03, TC04, TC05) to the recombinant ectoTMEM protein was measured by ELISA. In brief, ectoTMEM was diluted in PBS to 5 μg/ml and coated onto 96-well ELISA plates (100 μl/well) for 1 h at RT. After blocking and washing of the plates, an antibody dilution series was added to the plates and incubated for 1 h at RT. After washing of the plates, bound antibodies were detected via a secondary anti-human-Fc HRP-conjugated antibody. After another washing step, TMB reaction was performed, stopped with sulfuric acid and absorbance was measured. Based on the absorbance readings, an EC50 of the saturating antibodies was calculated.

Sequence of TMEM219 on human beta cells (Betalox-5) and human islets (human) (Q86XT9 39-240): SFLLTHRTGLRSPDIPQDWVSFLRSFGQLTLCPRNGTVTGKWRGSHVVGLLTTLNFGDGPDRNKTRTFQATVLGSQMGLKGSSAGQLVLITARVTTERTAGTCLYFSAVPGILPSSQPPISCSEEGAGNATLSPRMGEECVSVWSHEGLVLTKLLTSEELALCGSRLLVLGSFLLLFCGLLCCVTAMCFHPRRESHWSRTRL

Row | Molecule | Kd (Human Ecto-TMEM219 [2]) [nM] | EC50 (Human Ecto-TMEM219 [3]) [µg/mL] | also measured
1 | Recombinant human IGFBP3 (from UniProt P17936 28-291) (ligand) | – | – | CASP8 mRNA upregulation in beta cells cultured with IGFBP3 [1]: 70%; cell death of beta cells challenged with IGFBP3 [1]: 30%
2 | B1 | < 0.001 | – | Kd (Murine Ecto-TMEM219): < 0.001 nM
3 | B2 | – | 0.0791 | –
4 | B3 | – | 0.0898 | –
5 | B4 | – | 0.0647 | –
6 | B5 | 20 | – | Kd (Murine Ecto-TMEM219): 30 nM
7 | B6 | < 0.001 | – | –
